Experimental data from publication doi:10.1101/640771 (bioRxiv, 2019).

Target: T1, ALFA-tagged target immobilised for SPR with NbALFA (TST-NEDD8-ALFA or GFP-ALFA) (synthetic (designed ALFA-tag))
T1 chain: SRLEEELRRRLTE
Assay: SPR

B1: NbALFA (non-tagged) (VHH)
VHH: EVQLQESGGGLVQPGGSLRLSCTASGVTISALNAMAMGWYRQAPGERRVMVAAVSERGNAMYRESVQGRFTVTRDFTNKMVSLQMDNLKPEDTAVYYCHVLEDRVDSFHDYWGQGTQVTVSS
**Q.** B1 was tested. Which Kd did it give?
**A.** The Kd was ~0.026 nM.
